The text below walks through data of doi:10.64898/2025.12.18.694329.

Assay [1] has as its target SACSIN HEPN domain (recombinant, GST-tag removed) (human). Description: SEC.
The target is the same in assay [2]. Description: native gel or EMSA.

What is called stoichiometry N is a count of units in the complex or per binding partner. With “SACSIN HEPN domain (recombinant, GST-tag removed) (domain or fragment)”, the stoichiometry N in assay [1] and in assay [2] was 2 each time.
